Experimental data: US20220251215A1 (Regeneron, published 2022)

Tests used:
[1] = target: T1, HLA-A2 on T2 cells pulsed with NY-ESO-1:157-165, wt peptide (C165) (human); assay: flow cytometry, peptide-pulsed T2 cells
T1 construct: also called T2 Pulsed NY-ESO-1_157-165

[2] = target: HLA-A2 on T2 cells pulsed with GRID1: 7-15 peptide (human); assay: flow cytometry, 10 ug/ml, pulsed T2 cells
[3] = target: T1, HLA-A2 on T2 cells pulsed with …; assay: flow cytometry, 10 ug/ml, pulsed T2 cells
[4] = target: HLA-A2 on T2 cells pulsed with EARS2: 306-314 peptide (human); assay: flow cytometry, 10 ug/ml, pulsed T2 cells
[5] = target: HLA-A2 on T2 cells pulsed with ITCH (807-815) peptide (human); assay: flow cytometry, 10 ug/ml, pulsed T2 cells
[6] = target: HLA-A2 on T2 cells pulsed with BCL9L: 1351-1359 peptide (human); assay: flow cytometry, 10 ug/ml, pulsed T2 cells
[7] = target: T2, monomeric HLA-A2:NY-ESO-1(156-165) (V at position 165) peptide complex, 2906; assay: SPR, 25 C, antibody captured, monomeric complex injected;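 note: antibody held on sensor chip via immobilized anti-human or anti-mouse Fc antibody, rate constants derived by fitting sensorgrams to a 1:1 binding model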
T2 construct: also called soluble HLA-A2:NY-ESO-1 peptide complex

[8] = target: HLA-A2 on T2 cells pulsed with ZDHHC1 (376-384) peptide (human); assay: flow cytometry, 10 ug/ml, pulsed T2 cells
[9] = target: HLA-A2 on T2 cells pulsed with MAGEH1: 90-98 peptide (human); assay: flow cytometry, 10 ug/ml, pulsed T2 cells
[10] = target: HLA-A2 on T2 cells pulsed with URB1: 1853-1861 peptide (human); assay: flow cytometry, 10 ug/ml, pulsed T2 cells
[11] = target: HLA-A2 on T2 cells pulsed with FBXL22: 4-12 peptide (human); assay: flow cytometry, 10 ug/ml, pulsed T2 cells
[12] = target: T2, monomeric HLA-A2:NY-ESO-1(156-165) (V …); assay: SPR, 37 C, antibody captured, monomeric complex injected

Binder | EC50 [1] [nM] | ratio of MFI, pulsed to unpulsed [2] [ratio] | ratio of MFI, pulsed to unpulsed [3] [ratio] | ratio of MFI, pulsed to unpulsed [4] [ratio] | ratio of MFI, pulsed to unpulsed [5] [ratio] | ratio of MFI, pulsed to unpulsed [6] [ratio] | Kd [7] [nM] | koff [7] [s⁻¹] | kon [7] [M⁻¹ s⁻¹] | t½ [7] [min] | ratio of MFI, pulsed to unpulsed [8] [ratio] | ratio of MFI, pulsed to unpulsed [9] [ratio] | ratio of MFI, pulsed to unpulsed [10] [ratio] | ratio of MFI, pulsed to unpulsed [11] [ratio] | Kd [12] [nM] | koff [12] [s⁻¹] | kon [12] [M⁻¹ s⁻¹] | t½ [12] [min]
mAb29822P2 (antibody, human IgG4 S228P, kappa, V domains shown) VH: EVQLVESGGGVVQPGGSLRLSCAVSGFTFDDYAMHWVRQAPGKGLEWVSLISGDGGSTHYADSVKGRFTISRDNSKNSLYLQMNSLRTGDTALYYCAKDMIFAVVITDYHYYGMDVWGQGTTVTVSS VL: not shown | 5.4 | 0.7 | 36.7 | 0.5 | 0.8 | 0.8 | – | – | – | – | – | – | – | – | – | – | – | –
mAb28035P (antibody, human IgG4 S228P, kappa, V domains shown) VH: QVQLVQSGAEVMKPGASVKVSCKVSGYTLSDLSMHWVRQAPGKGLEWMGGFDFEHGKTIYAQKFQGRVTMTEDTSTDTTYMELSSLRSEDTAVYYCAKVPNWGFFDYWGQGTLVTVSS VL: not shown | 2.7 | 1.4 | 131 | 0.6 | 1 | 170 | 0.342 | 0.000152 | 445000 | 75.9 | 0.9 | 0.4 | 0.5 | 0.5 | 0.378 | 0.000253 | 669000 | 45.7
mAb29814P (antibody, human IgG4 S228P, kappa, V domains shown) VH: QVQLVESGGGVVQPGRSLRLSCVASGFTFSSYGMHWVRQAPGKGLEWVAVIWYVGSNKYYGDSVKGRFTISRDNSKNTLYLQMNSLRAEDTAVYYCARDLIADRPGYYYNGMDVWGQGTTVTVSS VL: EIVMTQSPVTLFVSPGERATLSCRASQSVNTNLAWYQQQPGQAPRLLIHGASTRPTGVPARFSGSGSGTEFTLIISSLQSEDFAVYYCQQYNNWPPWTFGQGTKVEIKR | 1.1 | 1.6 | 124 | 0.6 | 0.9 | 150 | – | – | – | – | 0.6 | 0.4 | 7.9 | 0.5 | – | – | – | –
mAb28042P (antibody, human IgG4 S228P, kappa, V domains shown) VH: QLQLQESDPGLVKPSETLSLTCTVSGDSIRNSNYYWGWIRQPPGKGLEWIGSIYFSGRTYFNPSLKSRVTIPVDMSKNQFSLMLNSVTATDTAVYYCARHGGITAAGGFFDYWGQGTLVTVSS VL: DIQMTQSPSSLSASVGDRVTITCQASQDISNYLNWYQQKPGKAPNVLIYDASNLETGVPSRFSGSGSGTDFTFTISSLQPEDFATYYCQQNDNLPLTFGGGTKVEIKR | 1.6 | 17.4 | 134 | 0.6 | 0.7 | 46.5 | 0.55 | 0.000199 | 362000 | 58 | 0.5 | 0.4 | 0.5 | 0.5 | 2.09 | 0.00117 | 561000 | 9.9
mAbm24955N (antibody, V domains shown, the prefix mAbm is not explained (perhaps a mouse constant region)) VH: EVQLVESGGGVVQPGGSLRLSCVASGFTFDDYAMYWVRQVPGKDLEWVSLISGDGDITYYVDSVKGRFTVSRDNNKNSLYLQMKSLRVEDTALYYCAKDMIYYASWSGYGSSDYYYYVMDVWGQGTTVTVSS VL: not shown | – | – | – | – | – | – | 2.27 | – | – | 9 | – | – | – | – | – | – | – | –
mAb24958N (antibody, human IgG4 S228P, kappa, V domains shown) VH: QVQLQESGPGLVKPSQTLSLTCTVSGGSIISDGYYWSWIRQHPGKGLEWIGYVDYSGNTYYNPSLKSRIIMSVDTSKNQFSLKLTSVTAADTAVYFCVREGPLRDAFEIWGQGTMVTVSS VL: DIQMTQSPSSLSASVGDRVTITCRTSQSISRYLNWYQQKPGKAPKLLIFAASSLQSGVPSRFSGSGSGADFTLTISSLQPEDFATYYCQQSYSTPPITFGQGTRLEIKR | 19 | 0.7 | 98.6 | 0.6 | 1 | – | 2.77 | – | – | 65.4 | – | 0.5 | 0.6 | 0.5 | – | – | – | –
mAb28105P (antibody, human IgG4 S228P, kappa, V domains shown) VH: EVQLVESGGGVVQPGGSLRLSCEASGFIFDDYAMHWVRQAPGKGLEWVSLISGDGDIIYYADSVKGRFTISRDNSKNSLYLQMNSLIIEDTALYYCAKDWVFGVVMTHYWYFGLDVWGQGTTVTVSS VL: DIQMTQSPSSLSASEGDRVTITCRASQSISTYLNWYQQKPGKAPKLLIYGASSLQSGVPSRFSGSGSGTDFTLTISSLQPEDFATYYCQQSYSTPPITFGQGTKVEIKR | 1.8 | 0.7 | 126 | 0.6 | 1 | – | 0.386 | – | – | 62.8 | 0.5 | 0.5 | 0.6 | 0.5 | 0.586 | – | – | 21.3
mAb24959N (antibody, human IgG4 S228P, kappa, V domains shown) VH: QLQLLESGPGLVKPSETLSLICTVSGGSIRGSSYYWGWIRQPPEKGLEWIGSIYSSGSTYYNPSLKSRVTISADTSKNQFSLKLSSVTAADTAVYYCARHGGITAVQLEFDPWGQGTLVTVSS VL: DIQMTQSPSSLSASVGDRVTITCQASQDISNYLKWYQQKPGKAPKILIHDASNLEIGVPSRFSGSGAGTDFIFTISSLQPEDIGTYYCQQYDNLPITFGQGTRLEIKR | 1.1 | 3.2 | 131 | 0.6 | 0.9 | 80.7 | 1.23 | 0.000517 | 421000 | 22.3 | 0.4 | 0.4 | 0.6 | 0.5 | – | – | – | –

Second part, the binder after the results:

EC50 [1] [nM] | ratio of MFI, pulsed to unpulsed [2] [ratio] | ratio of MFI, pulsed to unpulsed [3] [ratio] | ratio of MFI, pulsed to unpulsed [4] [ratio] | ratio of MFI, pulsed to unpulsed [5] [ratio] | ratio of MFI, pulsed to unpulsed [6] [ratio] | Kd [7] [nM] | koff [7] [s⁻¹] | kon [7] [M⁻¹ s⁻¹] | t½ [7] [min] | ratio of MFI, pulsed to unpulsed [8] [ratio] | ratio of MFI, pulsed to unpulsed [9] [ratio] | ratio of MFI, pulsed to unpulsed [10] [ratio] | ratio of MFI, pulsed to unpulsed [11] [ratio] | Kd [12] [nM] | koff [12] [s⁻¹] | kon [12] [M⁻¹ s⁻¹] | t½ [12] [min] | Binder
0.38 | 1.4 | 58.8 | 0.5 | 1 | 1.5 | 0.388 | – | – | 32.8 | – | 0.5 | 0.5 | 0.5 | 1 | – | – | 9.1 | mAb28075P (antibody, human IgG4 S228P, kappa, V domains shown) VH: EVQLVESGGGVVQPGGSLRLSCAASGFTFDDYAMHWVRQAPGKGLEWVSLISGDGDNTYYADSVKGRFTISRDNNKNSLYLQMNSLRTEDTAFYYCAKELIFGKVLHDFYYYVMDVWGQGTTVTVSS VL: not shown
0.6 | 0.9 | 115 | 0.5 | 0.9 | 1 | 0.639 | – | – | 35.5 | – | – | 0.6 | 0.5 | 1.94 | – | – | 7.9 | mAb28113P (antibody, human IgG4 S228P, kappa, V domains shown) VH: EVQLVESGGGVVQPGGSLRLSCAASGFTFDDYAMHWVRQAPGKGLEWVSLISGGGGGTYYSDSVKGRFTISRDTSKDSLYLQMNSLRTEDTALYYCAKDMVFGVVTPYYYFALDVWGQGTTVTVSS VL: not shown
0.47 | 1 | 125 | 0.6 | 0.9 | – | 0.387 | – | – | 31.6 | – | – | 0.5 | 0.5 | – | – | – | – | mAb24956N (antibody, human IgG4 S228P, kappa, V domains shown) VH: EVQLVESGGGVVQPGGSLRLSCAASGFTFDDYAMYWVRQAPGKGLEWVSLISGDGGSMYYADSVKGRFTISRDNSKNSLYLQMNSLRTEDTALYYCAKDMIFYAFWSGYGSSDYYYYVMDVWGQGTTVTVYS VL: not shown
0.78 | 0.7 | 137 | 0.6 | 1.3 | 52.3 | 0.692 | 0.000307 | 443000 | 37.7 | 0.5 | 0.4 | 0.6 | 0.5 | 2.76 | 0.00183 | 664000 | 6.3 | mAb28037P2 (antibody, human IgG4 S228P, kappa, V domains shown) VH: QVQLQESGPGLVKPSETLSLTCTVSGDSISVYYWTWIRQPPGKGLEWIGYVHYTGYTNYNPSLKSRVTMSVDTAKKQISLKVRSVTAADTAVYYCARTIPAAAHYYHGTDVWGPGTTVTVSS VL: DIQMTQSPSSLSASVGDRVTITCQANQDIRKYLNWYQQKSGKAPTLLIYEASNLETGAPSTFSGSGSGTEFTFTISSLRPEDIATYYCQQYESLPLTFGGGTKVEIKR
